Experiment [1] has as its target human neonatal Fc receptor (FcRn) (human) (UniProt P55899). Description: BLI; Octet; biotinylated human FcRn on streptavidin-coated biosensors, antibody soluble; equilibrium binding; PBSA pH 5.6; tips regenerated in PBSA pH 7.4.
Experiment [2] concerns the target human Fcγ receptor I (FcγRI) (human) (UniProt P12314). Description: BLI; Octet; biotinylated human FcγRI on streptavidin-coated biosensors, antibody soluble; equilibrium binding; PBSA pH 7.4; tips regenerated in 0.1 M glycine pH 3.5. (In BLI a coated tip is dipped into the sample, and binding shifts an interference pattern.)

Chain of human Fcγ receptor I (FcγRI) (human) (P12314 16-292): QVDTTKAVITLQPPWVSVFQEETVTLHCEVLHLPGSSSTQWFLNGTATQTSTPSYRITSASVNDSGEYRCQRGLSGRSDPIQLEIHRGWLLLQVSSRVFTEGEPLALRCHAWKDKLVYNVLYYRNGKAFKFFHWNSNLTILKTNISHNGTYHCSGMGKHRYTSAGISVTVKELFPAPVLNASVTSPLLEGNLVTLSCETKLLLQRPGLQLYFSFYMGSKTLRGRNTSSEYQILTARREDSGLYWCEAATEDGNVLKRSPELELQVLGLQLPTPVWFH

With F5111 antibody, N297A, the Kd – broadly, a measure of binding affinity in units of concentration – in experiment [1] is 0.133 µM; in experiment [2], 0.105 µM.
With “trastuzumab N297G + YTE + SEFL (aglycosylated variant) (antibody)”, in experiment [1], the Kd was found to be 0.0204 µM.

The values above are taken from article PMC11697773.
